Settings: Homo sapiens, 25 °C, Urea, Fluorescence, Potassium phosphate 25 mM, NaCl 25 mM, reversible: Yes, whole UniProt chain shown

B1: Prolactin wild type, P01236 (protein)
chain: MNIKGSPWKGSLLLLLVSNLLLCQSVAPLPICPGGAARCQVTLRDLFDRAVVLSHYIHNLSSEMFSEFDKRYTHGRGFITKAINSCHTSSLATPEDKEQAQQMNQKDFLSLIVSILRSWNEPLYHLVTEVRGMQEAPEAILSKAVEIEEQTKRLLEGMELIVSQVHPETKENEIYPVWSGLPSLQMADEESRLSAYYNLLHCLRRDSHKIDNYLKLLKCRIIHNNNC
In the case of B1, the denaturant m value (pH 5.8) is reported as 0.79 kcal/mol/M, the “denaturant midpoint (higher = more stable)” value (pH 5.8) is reported as 5.48 M and the unfolding free energy (pH 5.8) is reported as 4.3 kcal/mol. The denaturant m value (pH 7.8) was 1.35 kcal/mol/M, the “denaturant midpoint (higher = more stable)” value (pH 7.8) was 6.08 M and the unfolding free energy (pH 7.8) was 8.2 kcal/mol.

— FireProtDB (doi:10.1002/pro.100)
